# Reference: US20210356479A1 (BLOODWORKS, published 2021)
# Positions count from the first letter of the chain named.
# T1: human Kell glycoprotein, K form (KEL1) (human, UniProt P23276 1-732)
# T1 construct: whole, on cells; On human K/K or K+k+ RBCs and on RBCs of K transgenic mice; also called K antigen; K variant
# T1 sequence (looked up): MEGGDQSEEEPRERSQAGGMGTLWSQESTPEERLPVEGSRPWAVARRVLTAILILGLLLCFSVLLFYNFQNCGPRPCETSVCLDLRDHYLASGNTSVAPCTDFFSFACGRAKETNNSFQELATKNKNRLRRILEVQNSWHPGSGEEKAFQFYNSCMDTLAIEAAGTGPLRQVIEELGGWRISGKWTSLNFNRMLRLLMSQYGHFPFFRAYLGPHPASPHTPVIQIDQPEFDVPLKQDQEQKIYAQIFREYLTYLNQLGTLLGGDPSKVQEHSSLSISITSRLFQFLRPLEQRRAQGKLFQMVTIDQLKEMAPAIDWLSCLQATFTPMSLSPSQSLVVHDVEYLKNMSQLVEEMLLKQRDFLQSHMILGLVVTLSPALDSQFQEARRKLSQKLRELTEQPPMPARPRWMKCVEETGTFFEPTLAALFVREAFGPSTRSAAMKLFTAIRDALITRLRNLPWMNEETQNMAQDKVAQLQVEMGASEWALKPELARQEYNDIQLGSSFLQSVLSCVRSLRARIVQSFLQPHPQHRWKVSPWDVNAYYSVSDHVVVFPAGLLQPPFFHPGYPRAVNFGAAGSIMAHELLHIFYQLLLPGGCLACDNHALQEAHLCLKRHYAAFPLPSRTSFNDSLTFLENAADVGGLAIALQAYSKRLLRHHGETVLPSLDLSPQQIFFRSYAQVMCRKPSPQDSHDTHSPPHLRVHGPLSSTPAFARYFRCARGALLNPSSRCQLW
# T2: human Kell glycoprotein, k form (KEL2) (human, UniProt P23276 1-732)
# T2 construct: whole, on cells; On human k/k or K-k+ RBCs; also called k antigen
# T2 sequence (looked up): T1 sequence (looked up) with M193T
# B1: PUMA 1 human IgG1-03 isoallotype (antibody)
# heavy: EVQLQQSGPELVKPGASVKMSCKASGYTFTDYYMKWVKQSHGKSLEWIGDLNPNNGDTFYNQKFKGKATLTVDKSSSTAYIQLNSLTSEDSAVYYCAREAGSSFGSSCNYWGQGTTLTVS
# light: SVVMTQTPKFLLVSAGDRVTITCKASQTVSKDVAWYQQQPGQSPKLLIYYASNRYTGVPDRFTGSGYGTDFTFTISTVQAEDLAVYFCQQDYSSPYTFGGGTKLEIK
# notes: Isoallotype named in CLM-00007; not shown: human IgG1 heavy chain constant region, isoallotype IGHG1*03; human kappa light chain constant region (vector pFUSE2-CLIg-hk)
# B2: PUMA 1 human IgG3-03 isoallotype (antibody)
# heavy: B1 heavy
# light: B1 light
# notes: also called PUMA1-IgG3-03; not shown: human kappa light chain constant region (vector pFUSE2-CLIg-hk)
# B3: PUMA 1 human IgG1 (canonical, isoallotype IgG1-01) (antibody)
# heavy: not shown
# light: B1 light
# notes: also called PUMA1-IgG1; PUMA 1 IgG1; not shown: human kappa light chain constant region (vector pFUSE2-CLIg-hk)
# B4: PUMA 1 human IgG1-01v2 isoallotype (antibody)
# heavy: B1 heavy
# light: B1 light
# notes: Isoallotype named in CLM-00007; also called IGHG1*01v2; not shown: human IgG1 heavy chain constant region, isoallotype IGHG1*01v2; human kappa light chain constant region (vector pFUSE2-CLIg-hk)
# B5: PUMA 1 human IgG2-04 isoallotype (antibody)
# heavy: B1 heavy
# light: B1 light
# notes: Isoallotype named in CLM-00007; not shown: human IgG2 heavy chain constant region, isoallotype IGHG2*04; human kappa light chain constant region (vector pFUSE2-CLIg-hk)
# B6: PUMA 1 human IgG2-06 isoallotype (antibody)
# heavy: B1 heavy
# light: B1 light
# notes: Isoallotype named in CLM-00007; not shown: human IgG2 heavy chain constant region, isoallotype IGHG2*06; human kappa light chain constant region (vector pFUSE2-CLIg-hk)
# B7: PUMA 1 human IgG3 (canonical, isoallotype IgG3-01) (antibody)
# heavy: EVQLQQSGPELVKPGASVKMSCKASGYTFTDYYMKWVKQSHGKSLEWIGDLNPNNGDTFYNQKFKGKATLTVDKSSSTAYIQLNSLTSEDSAVYYCAREAGSSFGSSCNYWGQGTTLTVSASTKGPSVFPLAPCSRSTSGGTAALGCLVKDYFPEPVTVSWNSGALTSGVHTFPAVLQSSGLYSLSSVVTVPSSSLGTQTYTCNVNHKPSNTKVDKRVELKTPLGDTTHTCPRCPEPKSCDTPPPCPRCPEPKSCDTPPPCPRCPEPKSCDTPPPCPRCPAPELLGGPSVFLFPPKPKDTLMISRTPEVTCVVVDVSHEDPEVQFKWYVDGVEVHNAKTKPREEQYNSTFRVVSVLTVLHQDWLNGKEYKCKVSNKALPAPIEKTISKTKGQPREPQVYTLPPSREEMTKNQVSLTCLVKGFYPSDIAVEWESSGQPENNYNTTPPMLDSDGSFFLYSKLTVDKSRWQQGNIFSCSVMHEALHNRFTQKSLSLSPGK
# light: B1 light
# notes: also called PUMA1-IgG3; PUMA 1 IgG3; not shown: human kappa light chain constant region (vector pFUSE2-CLIg-hk)
# B8: PUMA 1 human IgG3-06 isoallotype (antibody)
# heavy: B1 heavy
# light: B1 light
# notes: Isoallotype named in CLM-00007; also called PUMA1-IgG3-6; not shown: human IgG3 heavy chain constant region, isoallotype IGHG3*06; human kappa light chain constant region (vector pFUSE2-CLIg-hk)
# B9: PUMA 1 human IgG1-05 isoallotype (antibody)
# heavy: B1 heavy
# light: B1 light
# notes: Isoallotype named in CLM-00007; not shown: human IgG1 heavy chain constant region, isoallotype IGHG1*05; human kappa light chain constant region (vector pFUSE2-CLIg-hk)
# B10: PUMA 1 human IgG1-07 isoallotype (antibody)
# heavy: B1 heavy
# light: B1 light
# notes: Isoallotype named in CLM-00007; not shown: human IgG1 heavy chain constant region, isoallotype IGHG1*07; human kappa light chain constant region (vector pFUSE2-CLIg-hk)
# B11: PUMA 1 human IgG2 (canonical, isoallotype IgG2-01) (antibody)
# heavy: EVQLQQSGPELVKPGASVKMSCKASGYTFTDYYMKWVKQSHGKSLEWIGDLNPNNGDTFYNQKFKGKATLTVDKSSSTAYIQLNSLTSEDSAVYYCAREAGSSFGSSCNYWGQGTTLTVSASTKGPSVFPLAPCSRSTSESTAALGCLVKDYFPEPVTVSWNSGALTSGVHTFPAVLQSSGLYSLSSVVTVPSSNFGTQTYTCNVDHKPSNTKVDKTVERKCCVECPPCPAPPVAGPSVFLFPPKPKDTLMISRTPEVTCVVVDVSHEDPEVQFNWYVDGVEVHNAKTKPREEQFNSTFRVVSVLTVVHQDWLNGKEYKCKVSNKGLPAPIEKTISKTKGQPREPQVYTLPPSREEMTKNQVSLTCLVKGFYPSDIAVEWESNGQPENNYKTTPPMLDSDGSFFLYSKLTVDKSRWQQGNVFSCSVMHEALHNHYTQKSLSLSPGK
# light: B1 light
# notes: also called PUMA1-IgG2; PUMA 1 IgG2; not shown: human kappa light chain constant region (vector pFUSE2-CLIg-hk)
# B12: PUMA 1 human IgG3-08 isoallotype (antibody)
# heavy: B1 heavy
# light: B1 light
# notes: Isoallotype named in CLM-00007; not shown: human IgG3 heavy chain constant region, isoallotype IGHG3*08; human kappa light chain constant region (vector pFUSE2-CLIg-hk)
# B13: PUMA 1 human IgG2-02 isoallotype (antibody)
# heavy: B1 heavy
# light: B1 light
# notes: Isoallotype named in CLM-00007; not shown: human IgG2 heavy chain constant region, isoallotype IGHG2*02; human kappa light chain constant region (vector pFUSE2-CLIg-hk)
# B14: PUMA 1 human IgG4 (canonical, isoallotype IgG4-01) (antibody)
# heavy: EVQLQQSGPELVKPGASVKMSCKASGYTFTDYYMKWVKQSHGKSLEWIGDLNPNNGDTFYNQKFKGKATLTVDKSSSTAYIQLNSLTSEDSAVYYCAREAGSSFGSSCNYWGQGTTLTVSASTKGPSVFPLAPCSRSTSESTAALGCLVKDYFPEPVTVSWNSGALTSGVHTFPAVLQSSGLYSLSSVVTVPSSSLGTKTYTCNVDHKPSNTKVDKRVESKYGPPCPSCPAPEFLGGPSVFLFPPKPKDTLMISRTPEVTCVVVDVSQEDPEVQFNWYVDGVEVHNAKTKPREEQFNSTYRVVSVLTVLHQDWLNGKEYKCKVSNKGLPSSIEKTISKAKGQPREPQVYTLPPSQEEMTKNQVSLTCLVKGFYPSDIAVEWESNGQPENNYKTTPPVLDSDGSFFLYSRLTVDKSRWQEGNVFSCSVMHEALHNHYTQKSLSLSPGK
# light: B1 light
# notes: also called PUMA1-IgG4; PUMA 1 IgG4; not shown: human kappa light chain constant region (vector pFUSE2-CLIg-hk)
# B15: PUMA 1 human IgG3-04 isoallotype (antibody)
# heavy: B1 heavy
# light: B1 light
# notes: Isoallotype named in CLM-00007; not shown: human IgG3 heavy chain constant region, isoallotype IGHG3*04; human kappa light chain constant region (vector pFUSE2-CLIg-hk)
# B16: PUMA 1 human IgG1-08 isoallotype (antibody)
# heavy: B1 heavy
# light: B1 light
# notes: Isoallotype named in CLM-00007; not shown: human IgG1 heavy chain constant region, isoallotype IGHG1*08; human kappa light chain constant region (vector pFUSE2-CLIg-hk)
# B17: PUMA 1 human IgG1-04v2 isoallotype (antibody)
# heavy: B1 heavy
# light: B1 light
# notes: Isoallotype named in CLM-00007; also called IGHG1*04v2; not shown: human IgG1 heavy chain constant region, isoallotype IGHG1*04v2; human kappa light chain constant region (vector pFUSE2-CLIg-hk)
# Tests used:
# [1] = target: T1, human Kell glycoprotein, K form (KEL1); test: flow cytometry on human K+k+ RBCs, detected with polyclonal anti-IgG
# Experimental: Flow cytometry consisted of incubating test RBCs with PUMA 1 variants, followed by the anti-IgG being evaluated, followed by a detection reagent. Test RBCs included RBCs from K mice, wild-type mice, and reagent RBCs from humans with the phenotype of (K+k+) or (K−k+). Test RBCs were resuspended in 50 microliters of supernatants of PUMA 1 isoallotypes; in some cases a 1/10 dilution in phosphate buffered saline (PBS) was used. For purified IgG1-IgG4 PUMA 1, the antibodies were diluted in PBS at the indicated concentrations. The tested anti-IgG reagents were used undiluted. Detection reagents consisted of donkey anti-rabbit conjugated to phycoerythrin at a 1/200 dilution (Affymetrix cat #12-4739-81, Santa Clara, Calif.), goat anti-mouse IgM conjugated to allophycocyanin at a 1/100 dilution (BD Biosciences, cat #550826, San Jose, Calif.), and goat anti-mouse Igs conjugated to allophycocyanin at a 1/100 dilution (SouthernBiotech cat #1020-11s, Birmingham, Ala.). All anti-IgG subclass antibodies were conjugated to phycoerythrin, were purchased from SouthernBiotech (catalog numbers 9056-09, 9070-09, 9210-09, 9200-09), and were used at a dilution of 1.200. All incubations were performed for 30 min at room temperature, followed by three washes with PBS. All flow cytometry was performed on an Accuri 4 color cytometer (BD biosciences, San Jose Calif.) and all data was analyzed with Flo-Jo version 10.
# To assess the sensitivity of commercially available anti-IgG preparations for different human IgG subclasses bound to RBCs, K+k+ RBCs were first incubated with PUMA 1 of the different human IgG subclasses, followed by incubation with anti-IgG. Treated RBCs were then stained with a fluorescently labeled antibody specific for the species in which the anti-IgG was generated (and non-reactive with human IgG). For each anti-IgG, the same secondary antibody was used to detect binding of the anti-IgG to each human PUMA 1 IgG subclass. To assess relative sensitivity, titrations of each PUMA 1 IgG subclass were carried out and samples were analyzed by flow cytometry using mean fluorescent intensity (MFI) to quantify staining (FIGS. 28A, 28B).
# [2] = target: T2, human Kell glycoprotein, k form (KEL2); test: flow cytometry on human K-k+ RBCs
Binder,binding result [1],binding result [2]
B1,binds,no binding
B2,binds,no binding
B3,,no binding
B4,binds,no binding
B5,binds,no binding
B6,binds,no binding
B7,,no binding
B8,binds,no binding
B9,binds,no binding
B10,binds,no binding
B11,,no binding
B12,binds,no binding
B13,binds,no binding
B14,,no binding
B15,binds,no binding
B16,binds,no binding
B17,binds,no binding
